Reference: patent US20150246945A1 (JAPANESE FOUNDATION FOR CANCER RESEARCH, published 2015)
Ends that are not written are not given here. * marks the point of attachment. Biotin = O=C1N[C@H]2[C@H](CS[C@H]2CCCCC(=O)*)N1

Tests used:
[1] = target: T1, EpCAM, whole protein on cells (HT-29, MCF-7, 293T transfected with full-length EpCAM plasmid pkk196) or on … (UniProt P16422 24-314, limits assumed); assay: staining of HT-29 spheroids with FITC peptide, fluorescence microscopy
T1 construct: whole, on cells; Used for both cell-surface EpCAM and EpCAM carried on HT-29 exosomes; the assay field says which; also called EpCAM on HT-29; EpCAM-expressing cells
T1 sequence (looked up): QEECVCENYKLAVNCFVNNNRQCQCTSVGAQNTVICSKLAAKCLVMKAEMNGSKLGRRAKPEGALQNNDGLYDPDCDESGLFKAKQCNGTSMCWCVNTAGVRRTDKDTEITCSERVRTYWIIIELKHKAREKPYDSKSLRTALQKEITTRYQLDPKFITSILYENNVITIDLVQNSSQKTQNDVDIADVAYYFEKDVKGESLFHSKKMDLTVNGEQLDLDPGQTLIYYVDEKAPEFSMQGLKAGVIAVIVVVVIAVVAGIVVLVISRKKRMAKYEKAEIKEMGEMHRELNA
Description: (§1) The HT-29 cells as EpCAM-expressing cells were cultured by spheroid culture method as follows: 4×10⁵ cells are suspended in 3 ml of D-MEM/F-12 medium (Dulbecco's Modified n Eagle Medium:Nutrient Mixture 12, 1:1 mixture) (Gibco/Life Technologies Inc.) supplemented with 20 ng/ml human EGF (Miltenyi Biotec K.K.), 20 ng/ml human […] (Miltenyi Biotec K.K.), B-27 (Gibco/Life Technologies Inc.), penicillin, and streptomycin and inoculated to EZ-Sphere®, a Petri dish of 3.5 cm in diameter coated with MPC polymer. After static culture for 72 hours, the cells were collected while the medium was suspended by pipetting. The cells were stained with the FITC-modified peptide and observed under a fluorescence microscope. The staining was carried out by adding 4 μM peptide into a McCoy's 5A medium and standing still at room temperature for 30 minutes.
When these control peptides were used at a concentration of 4 μM, no EpCAM staining was observed (data not shown).

[2] = target: T2, purified EpCAM (extracellular domain with myc and His tags at the C terminus, expressed in HEK-293T cells) (UniProt P16422 24-265, limits assumed); assay: fluorescence depolarization, FITC-modified peptide
T2 construct: extracellular domain; also called epithelial cell adhesion molecule; CD326
T2 sequence (looked up): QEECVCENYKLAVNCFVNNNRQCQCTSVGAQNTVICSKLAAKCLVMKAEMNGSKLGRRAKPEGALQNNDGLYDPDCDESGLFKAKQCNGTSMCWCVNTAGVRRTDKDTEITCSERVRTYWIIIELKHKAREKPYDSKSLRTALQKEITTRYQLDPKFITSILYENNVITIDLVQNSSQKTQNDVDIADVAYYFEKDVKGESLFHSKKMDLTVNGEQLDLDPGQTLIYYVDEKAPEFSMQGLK
Description: Each FITC-modified EpCAM peptide or control peptide was suspended at a concentration of approximately 100 μM in PBS. After centrifugation, the supernatant was collected and diluted 10-fold, and the absorbance was measured at 495 nm From the measurement value, the molar concentration of the peptide was determined using the formula of Beer-Lambert of the following expression 1: […]
EpCAM is diluted with PBS into several concentrations from 0 until reaching equilibrium (40 nM for the Ep133 peptide), and the FITC-modified peptide whose precise concentration has been measured by the aforementioned method is added to the dilutions thus prepared. The sample was left at a temperature for measurement for 30 minutes or longer and subjected to polarization measurement using a spectrofluorometer FP-6500 (JASCO Corp.) equipped with an automatic polarization measurement unit (JASCO Corp., APH-103). Kd was estimated by curve fitting according to the Hill equation.
The dissociation constants of the EpCAM-binding peptide Ep301 (FIG. 2(D)) disclosed in Patent Literature 2 and Ep301 control (FIG. 2(E)), which was a control peptide derived from Ep301 by the substitution of cysteine at positions 5 and 10 by serine, and a sequence of EpCAM from residue 106 to 119 (FIG. 2(F)) having partial homology to EpCAM-binding peptides were measured similarly.

[3] = target: T1, EpCAM, whole protein on cells (HT-29, …); assay: staining of HT-29 spheroids with FITC peptide
Description: as §1
Next, the results of staining using the L3A variant peptide as a control are shown.

[4] = target: T1, EpCAM, whole protein on cells (HT-29, …); assay: pull-down of HT-29 exosomes on peptide-loaded streptavidin beads, Western blot with anti-EpCAM
Description: 250 μg of streptavidin-magnetic beads (Dynabeads® M-280 streptavidin, VERITAS Corp.) in TBS containing 2% BSA was added to 20 μg of the biotinylated Ep114 peptide and shaken at room temperature for 30 minutes, followed by washing with TBS. Beads reacted without the peptide were used as a control. The anti-Ep114 antibody was added to the beads in TBST and reacted at room temperature for 1 hour. After washing with TBS, the beads were collected. The collected beads were heated at 95° C. for 5 minutes in a SDS sample buffer. After Western-blotting, the anti-Ep114 antibody was detected using HRP-labeled anti-rabbit antibodies.
The binding to exosomes was confirmed using the Western blot system in the similar method as in the preceding paragraph 1. Specifically, 20 μg of the biotinylated Ep114 peptide, the PE183 peptide, the PE184 peptide, or the PE185 peptide was bound to 250 μg of streptavidin-magnetic beads and then reacted with exosomes isolated from HT-29 cells as EpCAM-positive cells, followed by Western blot to detect the exosomes using anti-EpCAM polyclonal antibodies (see the left panel of FIG. 5C).

[5] = target: T2, purified EpCAM (extracellular domain …); assay: pull-down of EpCAM on peptide-loaded streptavidin magnetic beads, Western blot
[6] = target: T2, purified EpCAM (extracellular domain …); assay: ELISA, biotin peptide on streptavidin plate, purified EpCAM added
Description: was immobilized onto an ELISA plate via streptavidin, and purified EpCAM was added thereto in an amount of 0, 10, or 100 ng and reacted. After washing, bound EpCAM was detected using the anti-EpCAM antibody. A biotin-modified peptide PE194 (Ac-[…](biotin)-NH2) of the L3A variant (non-EpCAM-binding variant) was used as a control.

[7] = target: T2, purified EpCAM (extracellular domain …); assay: titer of phages bound to EpCAM-immobilized beads (TALON beads; Protein G beads with Vu-1D9), both conditions
Description: (§2) Under Condition 1, each phage (in FIG. 1C, rows 1 and 2 represent the Ep133-displaying phage, rows 3 and 4 represent the Ep301-displaying phage, and rows 5 and 6 represent the phage 447 displaying no peptide) was added at a titer of 1×10¹⁰ to 0.4 mg of TALON® beads immobilized 1 μg of EpCAM (FIG. 1C, rows 1, 3, and 5,indicating with plus sign) or the beads alone (FIG. 1C, rows 2, 4, and 6, indicating with minus sign). After washing with TBST five times, the titers of bound phages were measured.
as §2, with “2, 2.4 μg of anti-EpCAM monoclonal antibody (Vu-1D9, Abcam plc.) was immobilized on Protein G beads, and 3 μg of purified EpCAM was immobilized thereon via the antibody. Each” for “1, each”, “the” for “0.4 mg of TALON®”, “immobilized” for “immobilized 1 μg of”, “5, indicating” for “5,indicating with”, “once,” for “five times,”

B1: Ep133 control (peptide)
peptide: EHLHSLGSLSWP
modifications: also: FITC-modified, position not given here
notes: Ep133 with cysteine at positions 5 and 10 substituted by serine
binding result [1]: no binding (tested: 0.4 µM; also 4 µM (data not shown)) | binding result [2]: no binding

B2: L3A variant peptide of Ep114, FITC-labeled (peptide)
peptide: KHAQCVRNICWS
modifications: not fully specified (bridges); cysteine pairing not given here; also: FITC-labeled, position not given here
notes: Free labeled peptide used as a control in cell staining; also called L3A control labeled peptide; control peptide
binding result [3]: no binding

B3: PE183 peptide (peptide)
peptide: Ac-KHLQCVRNICWSPPPPPPKK(Biotin)-NH2
modifications: not fully specified (bridges); printed as Ac-KHLQCVRNICWSPPPPPPKK(biotin)-NH2; cysteine pairing not given here
binding result [4]: binds | binding result [5]: binds

Ac-KHAQCVRNICWSPPPPPPKK(Biotin)-NH2 (cysteine pairing not given here, L3A control of PE183) [biotin-modified peptide PE194 of the L3A variant]
binding result [6]: no binding (tested: 100 ng EpCAM)

KHLQSVRNISWS (also: FITC-labeled, position not given here) [Ep114 control peptide in which cysteine at positions 5 and 10 is substituted by serine]
binding result [1]: no binding (tested: 0.4 µM; also 4 µM (data not shown))

B4: Ep133-displaying phage (peptide)
chain: EHLHCLGSLCWP
modifications: not fully specified (bridges); cysteine pairing not given here; also: displayed on phage
notes: also called cloned phage displaying Ep133; not shown: fusion and linker not described
fold ability to bind compared with Ep301-displaying phage [7]: ≥ 10 times
